From patent US20210284734A1 (SYMPHOGEN A S, published 2021)

Columns and labels:
[1] = biological target: T1, human PD-1 ECD-Fc L128A (human, UniProt Q15116 21-170); assay: SPR, Fab on captured PD-1-Fc;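 also: Alanine-scan PD-1 Fc fusions expressed transiently in ExpiCHO, captured on anti-human IgG Fc surface in IBIS MX96, anti-PD-1 Fab association 15 min, dissociation 30 min, Langmuir 1:1 fit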
T1 construct: not shown: human IgG1 Fc, residues P101-K330

[2] = biological target: T2, human PD-1 ECD-Fc A50G (human, UniProt Q15116 21-170); assay: SPR, Fab on captured PD-1-Fc;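 also: Alanine-scan PD-1 Fc fusions expressed transiently in ExpiCHO, captured on anti-human IgG Fc surface in IBIS MX96, anti-PD-1 Fab association 15 min, dissociation 30 min, Langmuir 1:1 fit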
T2 construct: not shown: human IgG1 Fc, residues P101-K330

[3] = biological target: T3, human PD-1 ECD-Fc A154G (human, UniProt Q15116 21-170); assay: SPR, Fab on captured PD-1-Fc;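 also: Alanine-scan PD-1 Fc fusions expressed transiently in ExpiCHO, captured on anti-human IgG Fc surface in IBIS MX96, anti-PD-1 Fab association 15 min, dissociation 30 min, Langmuir 1:1 fit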
T3 construct: not shown: human IgG1 Fc, residues P101-K330
T3 sequence (Q15116 21-170 A154G): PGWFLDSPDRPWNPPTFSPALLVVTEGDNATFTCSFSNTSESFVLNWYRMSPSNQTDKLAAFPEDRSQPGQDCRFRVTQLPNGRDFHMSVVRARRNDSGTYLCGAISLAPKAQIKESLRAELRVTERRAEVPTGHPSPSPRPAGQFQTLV

[4] = biological target: T4, human PD-1 ECD-Fc S157R (human, UniProt Q15116 21-170); assay: SPR, Fab on captured PD-1-Fc;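 also: Alanine-scan PD-1 Fc fusions expressed transiently in ExpiCHO, captured on anti-human IgG Fc surface in IBIS MX96, anti-PD-1 Fab association 15 min, dissociation 30 min, Langmuir 1:1 fit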
T4 construct: also called Rat mutation S157R; not shown: human IgG1 Fc, residues P101-K330
T4 sequence (Q15116 21-170 S157R): as the sequence (Q15116 21-170 A154G) above, with G134A, S137R counted along it

[5] = biological target: T5, human PD-1 ECD-Fc P160A (human, UniProt Q15116 21-170); assay: SPR, Fab on captured PD-1-Fc
T5 construct: not shown: human IgG1 Fc, residues P101-K330

[6] = biological target: T6, human PD-1 ECD-Fc S73A (human, UniProt Q15116 21-170); assay: SPR, Fab on captured PD-1-Fc
T6 construct: not shown: human IgG1 Fc, residues P101-K330
T6 sequence (Q15116 21-170 S73A): as the sequence (Q15116 21-170 A154G) above, with S53A, G134A counted along it

[7] = biological target: T7, human PD-1 ECD-Fc K135A (human, UniProt Q15116 21-170); assay: SPR, Fab on captured PD-1-Fc
T7 construct: not shown: human IgG1 Fc, residues P101-K330
T7 sequence (Q15116 21-170 K135A): as the sequence (Q15116 21-170 A154G) above, with K115A, G134A counted along it

[8] = biological target: T8, human PD-1 ECD-Fc P28L (human, UniProt Q15116 21-170); assay: SPR, Fab on captured PD-1-Fc
T8 construct: also called Rat mutation P28L; not shown: human IgG1 Fc, residues P101-K330
T8 sequence (Q15116 21-170 P28L): as the sequence (Q15116 21-170 A154G) above, with P8L, G134A counted along it

[9] = biological target: T9, human PD-1 ECD-Fc T59A (human, UniProt Q15116 21-170); assay: SPR, Fab on captured PD-1-Fc
T9 construct: not shown: human IgG1 Fc, residues P101-K330
T9 sequence (Q15116 21-170 T59A): as the sequence (Q15116 21-170 A154G) above, with T39A, G134A counted along it

[10] = biological target: T10, human PD-1 ECD-Fc D29A (human, UniProt Q15116 21-170); assay: SPR, Fab on captured PD-1-Fc
T10 construct: not shown: human IgG1 Fc, residues P101-K330
T10 sequence (Q15116 21-170 D29A): as the sequence (Q15116 21-170 A154G) above, with D9A, G134A counted along it

[11] = biological target: T11, human PD-1 ECD-Fc Q165A (human, UniProt Q15116 21-170); assay: SPR, Fab on captured PD-1-Fc
T11 construct: not shown: human IgG1 Fc, residues P101-K330

[12] = biological target: T12, human PD-1 ECD-Fc E136A (human, UniProt Q15116 21-170); assay: SPR, Fab on captured PD-1-Fc
T12 construct: not shown: human IgG1 Fc, residues P101-K330
T12 sequence (Q15116 21-170 E136A): as the sequence (Q15116 21-170 A154G) above, with E116A, G134A counted along it

[13] = biological target: T13, human PD-1 ECD-Fc G124A (human, UniProt Q15116 21-170); assay: SPR, Fab on captured PD-1-Fc
T13 construct: not shown: human IgG1 Fc, residues P101-K330
T13 sequence (Q15116 21-170 G124A): as the sequence (Q15116 21-170 A154G) above, with G104A, G134A counted along it

[14] = biological target: T14, human PD-1 ECD-Fc V44A (human, UniProt Q15116 21-170); assay: SPR, Fab on captured PD-1-Fc
T14 construct: not shown: human IgG1 Fc, residues P101-K330
T14 sequence (Q15116 21-170 V44A): as the sequence (Q15116 21-170 A154G) above, with V24A, G134A counted along it

[15] = biological target: T15, human PD-1 ECD-Fc T76A (human, UniProt Q15116 21-170); assay: SPR, Fab on captured PD-1-Fc
T15 construct: not shown: human IgG1 Fc, residues P101-K330
T15 sequence (Q15116 21-170 T76A): as the sequence (Q15116 21-170 A154G) above, with T56A, G134A counted along it

[16] = biological target: T16, human PD-1 ECD-Fc D85A (human, UniProt Q15116 21-170); assay: SPR, Fab on captured PD-1-Fc
T16 construct: not shown: human IgG1 Fc, residues P101-K330

[17] = biological target: T17, human PD-1 ECD-Fc P89A (human, UniProt Q15116 21-170); assay: SPR, Fab on captured PD-1-Fc
T17 construct: not shown: human IgG1 Fc, residues P101-K330
T17 sequence (Q15116 21-170 P89A): as the sequence (Q15116 21-170 A154G) above, with P69A, G134A counted along it

[18] = biological target: T18, human PD-1 ECD-Fc S60A (human, UniProt Q15116 21-170); assay: SPR, Fab on captured PD-1-Fc
T18 construct: not shown: human IgG1 Fc, residues P101-K330
T18 sequence (Q15116 21-170 S60A): as the sequence (Q15116 21-170 A154G) above, with S40A, G134A counted along it

[19] = biological target: T19, human PD-1 ECD-Fc P162A (human, UniProt Q15116 21-170); assay: SPR, Fab on captured PD-1-Fc
T19 construct: not shown: human IgG1 Fc, residues P101-K330

[20] = biological target: T20, human PD-1 ECD-Fc E150A (human, UniProt Q15116 21-170); assay: SPR, Fab on captured PD-1-Fc
T20 construct: not shown: human IgG1 Fc, residues P101-K330
T20 sequence (Q15116 21-170 E150A): as the sequence (Q15116 21-170 A154G) above, with E130A, G134A counted along it

[21] = biological target: T21, human PD-1 ECD-Fc D77A (human, UniProt Q15116 21-170); assay: SPR, Fab on captured PD-1-Fc
T21 construct: not shown: human IgG1 Fc, residues P101-K330
T21 sequence (Q15116 21-170 D77A): as the sequence (Q15116 21-170 A154G) above, with D57A, G134A counted along it

[22] = biological target: T22, human PD-1 ECD-Fc P21A (human, UniProt Q15116 22-170); assay: SPR, Fab on captured PD-1-Fc
T22 construct: not shown: human IgG1 Fc, residues P101-K330
T22 sequence (Q15116 21-170 P21A): as the sequence (Q15116 21-170 A154G) above, with P1A, G134A counted along it

[23] = biological target: T23, human PD-1 ECD-Fc S57A (human, UniProt Q15116 21-170); assay: SPR, Fab on captured PD-1-Fc
T23 construct: not shown: human IgG1 Fc, residues P101-K330
T23 sequence (Q15116 21-170 S57A): as the sequence (Q15116 21-170 A154G) above, with S37A, G134A counted along it

[24] = biological target: T24, human PD-1 ECD-Fc T36A (human, UniProt Q15116 21-170); assay: SPR, Fab on captured PD-1-Fc
T24 construct: not shown: human IgG1 Fc, residues P101-K330
T24 sequence (Q15116 21-170 T36A): as the sequence (Q15116 21-170 A154G) above, with T16A, G134A counted along it

[25] = biological target: T25, human PD-1 ECD-Fc G90A (human, UniProt Q15116 21-170); assay: SPR, Fab on captured PD-1-Fc
T25 construct: not shown: human IgG1 Fc, residues P101-K330

[26] = biological target: T26, human PD-1 ECD-Fc N102A (human, UniProt Q15116 21-170); assay: SPR, Fab on captured PD-1-Fc
T26 construct: not shown: human IgG1 Fc, residues P101-K330
T26 sequence (Q15116 21-170 N102A): as the sequence (Q15116 21-170 A154G) above, with N82A, G134A counted along it

[27] = biological target: T27, human PD-1 ECD-Fc S87A (human, UniProt Q15116 21-170); assay: SPR, Fab on captured PD-1-Fc
T27 construct: not shown: human IgG1 Fc, residues P101-K330
T27 sequence (Q15116 21-170 S87A): as the sequence (Q15116 21-170 A154G) above, with S67A, G134A counted along it

[28] = biological target: T28, human PD-1 ECD Fc fusion, wild-type (human, UniProt Q15116 21-170); assay: SPR, Fab on captured wild-type PD-1-Fc; row head prints (nM), values evidently in M
T28 construct: also called Hu PD-1 ECD wild-type; hu PD-1 ECD; not shown: human IgG1 Fc, residues P101-K330
T28 sequence (Q15116 21-170): as the sequence (Q15116 21-170 A154G) above, with G134A counted along it

Binder | KD mutant/KD wild-type [1] [ratio] | KD mutant/KD wild-type [2] [ratio] | KD mutant/KD wild-type [3] [ratio] | KD mutant/KD wild-type [4] [ratio] | KD mutant/KD wild-type [5] [ratio] | KD mutant/KD wild-type [6] [ratio] | KD mutant/KD wild-type [7] [ratio] | KD mutant/KD wild-type [8] [ratio] | KD mutant/KD wild-type [9] [ratio] | KD mutant/KD wild-type [10] [ratio] | KD mutant/KD wild-type [11] [ratio] | KD mutant/KD wild-type [13] [ratio] | KD mutant/KD wild-type [14] [ratio] | KD mutant/KD wild-type [15] [ratio] | KD mutant/KD wild-type [16] [ratio] | KD mutant/KD wild-type [17] [ratio] | KD mutant/KD wild-type [18] [ratio] | KD mutant/KD wild-type [19] [ratio] | KD mutant/KD wild-type [20] [ratio] | KD mutant/KD wild-type [21] [ratio] | also measured
12865.17150 Fab (Fab, V domains shown, monomeric Fab fragment) VH: EVQLLESGGGLVQPGGSLRLSCAASGFDFSDHGMQWVRQAPGKGLEYVGVIDTTGRYTYYAPAVKGRATISRDNSKNTLYLQMNSLRAEDTAVYYCAKTTCVGGYLCNTVGSIDAWGQGTLVTVSS VL: SYELTQDPAVSVALGQTVRITCSGGGSSSYYGWYQQKPGQAPVTVIYDDTNRPSGIPDRFSGSSSGNTASLTITGAQAEDEADYYCGGYEGSSHAGIFGSGTKVTVL | 2.1 | 0.6 | 1 | 0.9 | 0.8 | 0.5 | 1.1 | 0.5 | 1 | 0.9 | 1.1 | 4 | 0.8 | 0.3 | 1.6 | 0.9 | 0.6 | 1.1 | 1 | 0.3 | binding result [12]: no binding (tested: 1 nM to 50 nM); KD mutant/KD wild-type [22]: 1 ratio; KD mutant/KD wild-type [23]: 1 ratio; KD mutant/KD wild-type [24]: 1 ratio; KD mutant/KD wild-type [25]: 0.8 ratio; KD mutant/KD wild-type [26]: 0.6 ratio; KD mutant/KD wild-type [27]: 0.9 ratio
12819.17149 Fab (Fab, V domains shown, monomeric Fab fragment) VH: EVQLLESGGGLVQPGGSLRLSCAASGFTFTRYDMVWVRQAPGKGLEWVAGIGDSNKMTRYAPAVKGRATISRDNSKNTLYLQMNSLRAEDTAVYYCAKGSCIACWDEAGRIDAWGQGTLVTVSS VL: SYELTQDPAVSVALGQTVRITCSGGGSYDGSSYYGWYQQKPGQAPVTVIYNNNNRPSDIPDRFSGSSSGNTASLTITGAQAEDEADYYCGSYDRPETNSDYVGMFGSGTKVTVL | 17.1 | 1.4 | 0.8 | 1.6 | 1 | 0.9 | 4.2 | 1.9 | 0.9 | 1 | 1.1 | 0.5 | 1.4 | 1.4 | 2.5 | 1.1 | 1.8 | 1.3 | 1 | 2.8 | KD mutant/KD wild-type [12]: 0.8 ratio; KD mutant/KD wild-type [22]: 2.1 ratio; KD mutant/KD wild-type [23]: 1.2 ratio; KD mutant/KD wild-type [24]: 1 ratio; KD mutant/KD wild-type [25]: 1 ratio; KD mutant/KD wild-type [26]: 1.5 ratio; KD mutant/KD wild-type [27]: 1.3 ratio; Kd [28]: 26.8 pM
13112.15380 Fab (Fab, V domains shown) VH: EVQLLESGGGLVQPGGSLRLSCAASGFTFSSYNMFWVRQAPGKGLEFVAEISGSNTGSRTWYAPAVKGRATISRDNSKNTLYLQMNSLRAEDTAVYYCAKSIYGGYCAGGYSCGVGLIDAWGQGTLVTVSS VL: SYELTQDPAVSVALGQTVRITCSGGSSDYYGWFQQKPGQAPVTVIYYNNKRPSDIPDRFSGSSSGNTASLTITGAQAEDEADYYCGNADSSVGVFGSGTKVTVL | 0.9 | 1.7 | 1 | 1 | 1 | 0.9 | 1.2 | 0.7 | 0.9 | 1 | 1.1 | 1 | 9.9 | 1.2 | 0.9 | 0.9 | 1 | 1.1 | 1 | 1 | KD mutant/KD wild-type [12]: 1 ratio; KD mutant/KD wild-type [22]: 1.1 ratio; KD mutant/KD wild-type [23]: 1.1 ratio; KD mutant/KD wild-type [24]: 0.9 ratio; KD mutant/KD wild-type [25]: 1 ratio; KD mutant/KD wild-type [26]: 0.7 ratio; KD mutant/KD wild-type [27]: 1 ratio
